Data from PMC3374333 (Nature neuroscience, 2012).

Target: the molecule itself
Test: SEC

B1: GBR1bVFT (Venus Flytrap module of the extracellular domain of human GABAB receptor subunit GBR1b) (domain or fragment, UniProt Q9UBS5-2 30-459, looked up)
chain: SHSPHLPRPHSRVPPHPSSERRAVYIGALFPMSGGWPGGQACQPAVEMALEDVNSRRDILPDYELKLIHHDSKCDPGQATKYLYELLYNDPIKIILMPGCSSVSTLVAEAARMWNLIVLSYGSSSPALSNRQRFPTFFRTHPSATLHNPTRVKLFEKWGWKKIATIQQTTEVFTSTLDDLEERVKEAGIEITFRQSFFSDPAVPVKNLKRQDARIIVGLFYETEARKVFCEVYKERLFGKKYVWFLIGWYADNWFKIYDPSINCTVDEMTEAVEGHITTEIVMLNPANTRSISNMTSQEFVEKLTKRLKRHPEETGGFQEAPLAYDAIWALALALNKTSGGGGRSGVRLEDFNYNNQTITDQIYRAMNSSSFEGVSGHVVFDASGSRMAWTLIEQLQGGSYKKIGYYDSTKDDLSWSKTDKWIGGSPPAD
  stoichiometry N: 2
